Assay results taken from patent publication US12053511B2, “Cystatin C and Cystatin 9 to treat gut inflammation caused by thermal injury” (priority 2016, dated 2024).

Tests used:
Assay in all cases: Viability and virulence of pathogenic bacterial strains
Assay type in all cases: cell-based
Conditions in all cases: 50 pg dose
[1] = system: Klebsellia pneumoniae (isolate from burn patient lung)
E. coli O157:H7 (ATCC) = system: E. coli O157:H7 (ATCC)
[2] = system: Burkholderia thialandensis (ATCC)

Measured: viability and virulence

B1: rCST9: human recombinant cystatin 9, cysteine proteinase inhibitor; purchased from American Research Products, Inc. (protein, UniProt Q5W186 29-159, looked up)
Cystatin-9: WCSEEEMGGNNKIVQDPMFLATVEFALNTFNVQSKEEHAYRLLRVLSSWREDSMDRKWRGKMVFSMNLQLRQTVCRKFEDDIDNCPFQESLELNNVRQGISFPQVHSCGCCMGCGVGTGAADKAIPRDKGK
retarded the viability and virulence: all assays above
